From patent US20250277054A1 (WUXI BIOLOGICS IRELAND, published 2025)
Where two headings read alike, the source gives them in different places.

How the values were obtained:
[1] = target: T1, human PSMA on human prostate cancer cells (LNCaP, C4-2, 22Rv1) (human, UniProt Q04609 1-750); assay: cell-based or functional assay
[2] = target: T1, human PSMA on human prostate cancer …; assay: cell-based or functional assay; remark: listed apart in the source
[3] = target: T2, Human PSMA.ECD.His (Acro) (human, UniProt Q04609 44-750); assay: ELISA, coated human PSMA protein (His tag)
T2 construct: extracellular domain; Bought protein with His tag; also called human PSMA ECD protein; Human PSMA/FOLH1 protein, His tag
Description: (§1) Briefly, 1 μg/mL human PSMA protein (His tag) were coated onto wells in ELISA plate in coating buffer at 4° C. for 16 hours. After washing the plate with 1×PBST once, the plate was blocked by using 200 μL/well 2% BSA for one hour. After washing the plate for three times with 1×PBST, various concentrations of antibodies diluted in 2% BSA (5-fold serially diluted from 200 nM to 0.004096 pM) were added to the wells and the plate was incubated for one hour at ambient temperature. After washing the plate three times with 1×PBST, Goat anti-human-IgG-Fc-HRP (at 1:5000 dilution) was added into wells and incubated for one hour. After washing six times with 1×PBST, 100 μL/well of TMB substrate solution was added into wells and incubated for 5 minutes in dark and then 100 μL/well of 2M HCl was added into wells to stop the reaction. The relative light unit (RLU) was measured at OD₄₅₀ and OD₅₄₀ by SPECTRAMAX M5E. The binding EC₅₀ was calculated by GraphPad Prism 7 software by plotting antibody concentration (x-axis) versus OD₄₅₀₋₅₄₀ (y-axis) and analyzing as: Nonlinear regression (curve fit)-log (agonist) vs. response-Variable slope (four parameters).

[4] = target: T1, human PSMA on human prostate cancer …; assay: flow cytometry on 22Rv1 cells (PSMA low)
Description: (§2) After washing twice with 1×PBS/1% BSA/0.1 mM EDTA, Alexa fluor 647-labeled goat anti-human IgG Fc (at 1:500 dilution) was added and the plate was incubated at 4° C. for half an hour in dark. After washing twice with 1×PBS/1% BSA/0.1 mM EDTA, cells were re-suspended in 1×PBS/1% BSA/0.1 mM EDTA, and mean fluorescence intensity (MFI) was measured by a flow cytometer and analyzed by FLOWJO. The binding EC₅₀ was calculated by GraphPad Prism 7 software by plotting antibody concentration (x-axis) versus […] (y-axis) and analyzing as: Nonlinear regression (curve fit)-log (agonist) vs. response-Variable slope (four parameters).

[5] = target: T1, human PSMA on human prostate cancer …; assay: flow cytometry on C4-2 cells (PSMA high)
Description: as §2

[6] = target: T1, human PSMA on human prostate cancer …; assay: flow cytometry on LNCaP cells (PSMA high)
Description: as §2

[7] = target: T2, Human PSMA.ECD.His (Acro); assay: ELISA, coated human PSMA protein (His tag); remark: listed apart in the source
Description: as §1

[8] = target: T3, Mouse PSMA.ECD.His (Acro) (mouse, UniProt O35409 45-752); assay: ELISA, coated mouse PSMA protein (His tag)
T3 construct: extracellular domain; Bought protein with His tag; also called mouse PSMA protein (His tag); Mouse PSMA/FOLH1 protein, His tag
Description: (§3) Briefly, 1 μg/mL cynomolgus PSMA protein (His tag) and 2 μg/mL mouse PSMA protein (His tag) were coated onto wells in an ELISA plate in coating buffer at 4° C. for 16 hours. After washing plate with 1×PBST once, the plate was blocked by using 200 μL/well 2% BSA for one hour. […] After washing three times with 1×PBST, Goat anti-human-IgG-Fc-HRP (at 1:5000 dilution) was added and incubated for one hour. After washing six times with 1×PBST, 100 μL/well of TMB substrate solution was added into wells and incubated for 5 minutes in dark and then 100 μL/well of 2M HCL were added into wells to stop the reaction. The relative light unit (RLU) was measured at OD₄₅₀ and OD₅₄₀ by SPECTRAMAX M5E. EC₅₀ was determined as described above.

[9] = target: T4, full-length cynomolgus PSMA on Flp-in CHO cells (WBP3xx042-FlpinCHO.cPro1.B7) (cynomolgus, UniProt A0A2K5VNZ0 1-750); assay: flow cytometry on FlpInCHO-cyno PSMA cells
T4 construct: whole, on cells; also called Cyno PSMA+ CHO cells; FlpInCHO-cyno PSMA
Description: WBP3xx042-FlpinCHO.cPro1.B7 (5×10⁴ cells) was incubated with various concentrations of antibodies 4° C. for one hour. After washing twice with 1×PBS/1% BSA/0.1 mM EDTA, secondary antibody, Alexa fluor 647-labeled goat anti-human IgG Fc, was added and the plate was incubated at 4° C. for half an hour in dark. After washing twice with 1×PBS/1% BSA/0.1 mM EDTA, cells were re-suspended in 1×PBS/1% BSA/0.1 mM EDTA. MFI and EC₅₀ were determined as described above.

Cyno PSMA.ECD.His (Acro) [10] = target: T5, Cyno PSMA.ECD.His (Acro) (cynomolgus, UniProt A0A2K5VNZ0 44-750); assay: ELISA, coated cynomolgus PSMA protein (His tag)
T5 construct: extracellular domain; Bought protein with His tag; also called cynomolgus PSMA ECD protein; Cynomolgus PSMA/FOLH1 protein, His tag
Description: as §3

Cyno PSMA.ECD.His (Acro) [11] = target: T5, Cyno PSMA.ECD.His (Acro); assay: ELISA, coated cynomolgus PSMA protein (His tag); remark: listed apart in the source
Description: as §3

[12] = target: T6, Human CD3δ & CD3ε heterodimer protein (Flag & His Tag) (human, UniProt P04234 22-105; P07766 23-126); assay: SPR (Biacore 8K), antibody captured by anti-human IgG Fc, CD3δ & CD3ε heterodimer injected, 1:1 model
T6 construct: Bought heterodimer with Flag and His tags
Description: Each antibody was captured on an anti-human IgG Fc antibody immobilized CM5 sensor chip (Cytiva). human CD3δ & CD3ε heterodimer at different concentrations were injected over the sensor chip at a flow rate of 30 μL/min for an association phase of 120 s, followed by 240 s dissociation. The chip was regenerated by 10 mM glycine (pH 1.5) after each binding cycle.
The sensorgrams of blank surface and buffer channel were subtracted from the test sensorgrams. The experimental data was fitted by 1:1 binding model. Molecular weight of 31 kDa was used to calculate the molar concentration of human CD3δ & CD3ε heterodimer.

[13] = target: T7, Biotinylated Human PSMA/FOLH1 Protein, His, Avitag (human, UniProt Q04609 44-750, biotin label (Avitag)); assay: SPR (Biacore 8K), biotinylated human PSMA captured on streptavidin chip, antibody injected, single-cycle, 1:1 model
T7 construct: Bought protein; also called Human PSMA Protein (His Tag & biotin label)
Description: Biotinylated human PSMA was captured on a streptavidin-immobilized CM5 sensor chip (Cytiva). Antibodies at different concentrations were injected over the sensor chip in an injection type of single-cycle at a flow rate of 30 μL/min for an association phase of 180 s, followed by 600-3600 s dissociation. The chip was then regenerated by 10 mM glycine (pH1.5) at the last binding cycle.
The sensorgrams of the blank surface and buffer channel were subtracted from the test sensorgrams. The experimental data were fitted by 1:1 binding model.

T7 sequence (Q04609 44-750 limits assumed): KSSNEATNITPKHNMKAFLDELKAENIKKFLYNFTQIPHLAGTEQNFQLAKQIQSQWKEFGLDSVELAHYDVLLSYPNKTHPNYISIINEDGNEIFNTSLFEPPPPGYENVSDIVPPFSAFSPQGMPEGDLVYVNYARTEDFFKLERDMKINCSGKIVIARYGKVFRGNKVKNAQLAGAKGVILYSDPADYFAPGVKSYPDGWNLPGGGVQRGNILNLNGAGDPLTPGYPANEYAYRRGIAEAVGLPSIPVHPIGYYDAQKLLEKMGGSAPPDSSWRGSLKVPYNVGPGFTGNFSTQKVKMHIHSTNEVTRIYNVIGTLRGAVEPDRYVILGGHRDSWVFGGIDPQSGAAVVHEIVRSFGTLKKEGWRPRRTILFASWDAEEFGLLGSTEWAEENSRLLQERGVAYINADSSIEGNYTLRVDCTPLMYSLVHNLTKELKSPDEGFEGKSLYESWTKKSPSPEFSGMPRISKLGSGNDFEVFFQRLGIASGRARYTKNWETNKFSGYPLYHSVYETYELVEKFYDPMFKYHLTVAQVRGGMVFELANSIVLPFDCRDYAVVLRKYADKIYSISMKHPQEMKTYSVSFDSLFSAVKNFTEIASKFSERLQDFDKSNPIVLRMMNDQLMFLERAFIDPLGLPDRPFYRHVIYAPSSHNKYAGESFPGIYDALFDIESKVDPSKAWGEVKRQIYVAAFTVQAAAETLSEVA
T6 sequence (P04234 22-105, stated change not applied, form in doubt, chain 1 of 2): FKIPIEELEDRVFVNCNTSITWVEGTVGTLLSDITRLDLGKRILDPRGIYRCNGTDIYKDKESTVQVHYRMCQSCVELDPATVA
T6 sequence (P07766 23-126, stated change not applied, form in doubt, chain 2 of 2): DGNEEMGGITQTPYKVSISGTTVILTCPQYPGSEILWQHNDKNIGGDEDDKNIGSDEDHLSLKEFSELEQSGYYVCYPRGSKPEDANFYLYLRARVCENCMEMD
T1 sequence (Q04609 whole entry): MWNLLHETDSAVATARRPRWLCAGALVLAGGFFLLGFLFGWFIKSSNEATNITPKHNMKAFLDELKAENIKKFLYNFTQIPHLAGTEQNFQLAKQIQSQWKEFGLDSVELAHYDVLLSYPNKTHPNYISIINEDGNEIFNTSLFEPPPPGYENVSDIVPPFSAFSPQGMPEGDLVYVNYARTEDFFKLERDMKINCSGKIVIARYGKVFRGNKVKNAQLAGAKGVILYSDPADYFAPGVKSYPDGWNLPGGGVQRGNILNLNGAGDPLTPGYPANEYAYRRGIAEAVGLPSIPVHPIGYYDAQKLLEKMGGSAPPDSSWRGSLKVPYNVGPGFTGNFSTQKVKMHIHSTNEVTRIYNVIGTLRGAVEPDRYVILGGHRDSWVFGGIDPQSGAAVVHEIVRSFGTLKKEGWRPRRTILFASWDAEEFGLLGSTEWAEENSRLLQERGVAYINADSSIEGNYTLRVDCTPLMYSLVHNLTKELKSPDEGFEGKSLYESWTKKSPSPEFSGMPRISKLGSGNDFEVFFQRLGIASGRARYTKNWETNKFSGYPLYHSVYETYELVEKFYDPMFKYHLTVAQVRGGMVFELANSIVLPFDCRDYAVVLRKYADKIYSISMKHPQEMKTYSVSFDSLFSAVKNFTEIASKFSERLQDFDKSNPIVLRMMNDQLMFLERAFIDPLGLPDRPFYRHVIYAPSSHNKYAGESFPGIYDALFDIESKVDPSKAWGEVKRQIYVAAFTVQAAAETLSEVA
T2 sequence (Q04609 44-750): as the sequence (Q04609 44-750 limits assumed) above
T3 sequence (O35409 45-752): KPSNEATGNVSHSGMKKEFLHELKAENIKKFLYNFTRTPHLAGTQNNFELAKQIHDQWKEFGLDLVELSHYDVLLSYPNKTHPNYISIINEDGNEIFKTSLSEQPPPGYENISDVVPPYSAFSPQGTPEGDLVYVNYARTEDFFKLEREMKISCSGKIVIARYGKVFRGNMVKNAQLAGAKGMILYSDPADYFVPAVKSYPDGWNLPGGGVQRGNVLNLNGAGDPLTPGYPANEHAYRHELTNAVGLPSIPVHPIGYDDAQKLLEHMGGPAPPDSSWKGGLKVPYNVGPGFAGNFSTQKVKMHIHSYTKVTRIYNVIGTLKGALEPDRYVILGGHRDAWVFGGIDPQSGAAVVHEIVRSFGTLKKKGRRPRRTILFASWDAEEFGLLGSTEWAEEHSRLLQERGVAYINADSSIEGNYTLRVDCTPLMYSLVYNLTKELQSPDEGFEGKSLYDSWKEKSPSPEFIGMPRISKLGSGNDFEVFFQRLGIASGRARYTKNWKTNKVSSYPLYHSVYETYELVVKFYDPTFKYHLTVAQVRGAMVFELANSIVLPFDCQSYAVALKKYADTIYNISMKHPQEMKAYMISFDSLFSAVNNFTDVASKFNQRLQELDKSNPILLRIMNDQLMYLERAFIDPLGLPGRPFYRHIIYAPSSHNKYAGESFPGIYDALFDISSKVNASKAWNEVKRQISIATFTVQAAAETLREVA

EC50 of IFN-γ release, CD3+ T + C4-2 [2]: ~160 pM | EC50 [3]: 27 pM | EC50 [4]: 290 pM | EC50 [5]: 1480 pM | EC50 [6]: 580 pM | EC50 [7]: 30 pM | EC50 [8]: 1340 pM | EC50 [9]: 3200 pM | EC50 (Cyno PSMA.ECD.His (Acro) [10]): 45 pM | EC50 (Cyno PSMA.ECD.His (Acro) [11]): 50 pM | Kd [12]: 60200 pM | koff [12]: 0.0331 s⁻¹ | kon [12]: 550000 M⁻¹ s⁻¹ | Kd [13]: 15.8 pM | koff [13]: 1.39e-05 s⁻¹ | kon [13]: 880000 M⁻¹ s⁻¹
B1: W308051-T3U5.E17-61.uIgG4V322 (bispecific antibody)
heavy 1: QVQLVQSGAEVKKPGSSVKVSCKASGFAFTDYYIHWVRQAPGQGLEWMGWISPGNVNTKYNENFKGRVTITADKSTSTAYMELSSLRSEDTAVYYCARDGYSLYYFDYWGQGTLVTVLEDLKNVFPPEVAVFEPSECEISHTQKATLVCLATGFYPDHVELSWWVNGKEVHSGVCTDPQPLKEQPALQDSRYALSSRLRVSATFWQNPRNHFRCQVQFYGLSENDEWTQDRAKPVTQIVSAEAWGRYGPPCPPCPAPEAAGGPSVFLFPPKPKDTLMISRTPEVTCVVVDVSQEDPEVQFNWYVDGVEVHNAKTKPREEQFNSTYRVVSVLTVLHQDWLNGKEYKCKVSNKGLPSSIEKTISKAKGQPREPQVYTLPPCQEEMTKNQVSLWCLVKGFYPSDIAVEWESNGQPENNYKTTPPVLDSDGSFFLYSRLTVDKSRWQEGNVFSCSVMHEALHNHYTQKSLSLSLG
light 1: DIVMTQSPDSLAVSLGERATINCKSSQSLLNSRTRKNYLAWYQQKPGQPPKLLIYWASTRQSGVPDRFSGSGSGTDFTLTISSLQAEDVAVYYCTQSHTLRTFGGGTKVEIKPDIQNPDPAVYQLRDSKSSDKSVCLFTDFDSQTQVSQSKDSDVYITDKCVLDMRSMDFKSNSAVAWSQKSDFACANAFQNSIIPEDTFFCS
heavy 2: EVQLVQSGAEVKKPGESLKISCKASGYSFTTYWIGWVRQMPGKGLELMGIIYPYDSDTRYSPSFQGQVTISADKSINTAYLQWSSLKASDTAMYYCARITGGYLFDYWGQGILVTVSSASTKGPSVFPLAPCSRSTSESTAALGCLVKDYFPEPVTVSWNSGALTSGVHTFPAVLQSSGLYSLSSVVTVPSSSLGTKTYTCNVDHKPSNTKVDKRVESKYGPPCPPCPAPEAAGGPSVFLFPPKPKDTLMISRTPEVTCVVVDVSQEDPEVQFNWYVDGVEVHNAKTKPREEQFNSTYRVVSVLTVLHQDWLNGKEYKCKVSNKGLPSSIEKTISKAKGQPREPQVCTLPPSQEEMTKNQVSLSCAVKGFYPSDIAVEWESNGQPENNYKTTPPVLDSDGSFFLVSRLTVDKSRWQEGNVFSCSVMHEALHNHYTQKSLSLSLG
light 2: QSALTQPPSASGSPGQSVTISCTGTSSDVGGYNYVSWYQQHPGKAPKLMIYEVTKRPSGVPDRFSGSKSGNTASLTVSGLQAEDEADYYCTSYAGSNKYVFGTGTKVTVLGQPKAAPSVTLFPPSSEELQANKATLVCLISDFYPGAVTVAWKADSSPVKAGVETTTPSKQSNNKYAASSYLSLTPEQWKSHKSYSCQVTHEGSTVEKTVAPTECS
notes: CD3xPSMA bispecific; also called WBP308051
IC50 of T cell cytotoxicity, CD3+ T + C4-2 [1]: 82 pM | IC50 of T cell cytotoxicity, CD3+ T + LNCaP [1]: 37 pM
